B1: Nme2Cas9 (recombinant, purified; Neisseria meningitidis strain De11444) (protein)
chain: PKKKRKVNAMAAFKPNPINYILGLDIGIASVGWAMVEIDEEENPIRLIDLGVRVFERAEVPKTGDSLAMARRLARSVRRLTRRRAHRLLRARRLLKREGVLQAADFDENGLIKSLPNTPWQLRAAALDRKLTPLEWSAVLLHLIKHRGYLSQRKNEGETADKELGALLKGVANNAHALQTGDFRTPAELALNKFEKESGHIRNQRGDYSHTFSRKDLQAELILLFEKQKEFGNPHVSGGLKEGIETLLMTQRPALSGDAVQKMLGHCTFEPAEPKAAKNTYTAERFIWLTKLNNLRILEQGSERPLTDTERATLMDEPYRKSKLTYAQARKLLGLEDTAFFKGLRYGKDNAEASTLMEMKAYHAISRALEKEGLKDKKSPLNLSSELQDEIGTAFSLFKTDEDITGRLKDRVQPEILEALLKHISFDKFVQISLKALRRIVPLMEQGKRYDEACAEIYGDHYGKKNTEEKIYLPPIPADEIRNPVVLRALSQARKVINGVVRRYGSPARIHIETAREVGKSFKDRKEIEKRQEENRKDREKAAAKFREYFPNFVGEPKSKDILKLRLYEQQHGKCLYSGKEINLVRLNEKGYVEIDHALPFSRTWDDSFNNKVLVLGSENQNKGNQTPYEYFNGKDNSREWQEFKARVETSRFPRSKKQRILLQKFDEDGFKECNLNDTRYVNRFLCQFVADHILLTGKGKRRVFASNGQITNLLRGFWGLRKVRAENDRHHALDAVVVACSTVAMQQKITRFVRYKEMNAFDGKTIDKETGKVLHQKTHFPQPWEFFAQEVMIRVFGKPDGKPEFEEADTPEKLRTLLAEKLSSRPEAVHEYVTPLFVSRAPNRKMSGAHKDTLRSAKRFVKHNEKISVKRVWLTEIKLADLENMVNYKNGREIELYEALKARLEAYGGNAKQAFDPKDNPFYKKGGQLVKAVRVEKTQESGVLLNKKNAYTIADNGDMVRVDVFCKVDKKGKNQYFIVPIYAWQVAENILPDIDCKGYRIDDSYTFCFSLHKYDLIAFQKDEKSKVEFAYYINCDSSNGRFYLAWHDKGSKEQQFRISTQNLVLIQKYQVNELGKEIRPCRLKKRPPVRGGGGSGGGGSGGGGSPAAKKKKLDGGGSKRPAATKKAGQAKKKK
B2: Nme1Cas9 (Cas9 of Neisseria meningitidis strain 8013) (protein)
chain: MAAFKPNSINYILGLDIGIASVGWAMVEIDEEENPIRLIDLGVRVFERAEVPKTGDSLAMARRLARSVRRLTRRRAHRLLRTRRLLKREGVLQAANFDENGLIKSLPNTPWQLRAAALDRKLTPLEWSAVLLHLIKHRGYLSQRKNEGETADKELGALLKGVAGNAHALQTGDFRTPAELALNKFEKESGHIRNQRSDYSHTFSRKDLQAELILLFEKQKEFGNPHVSGGLKEGIETLLMTQRPALSGDAVQKMLGHCTFEPAEPKAAKNTYTAERFIWLTKLNNLRILEQGSERPLTDTERATLMDEPYRKSKLTYAQARKLLGLEDTAFFKGLRYGKDNAEASTLMEMKAYHAISRALEKEGLKDKKSPLNLSPELQDEIGTAFSLFKTDEDITGRLKDRIQPEILEALLKHISFDKFVQISLKALRRIVPLMEQGKRYDEACAEIYGDHYGKKNTEEKIYLPPIPADEIRNPVVLRALSQARKVINGVVRRYGSPARIHIETAREVGKSFKDRKEIEKRQEENRKDREKAAAKFREYFPNFVGEPKSKDILKLRLYEQQHGKCLYSGKEINLGRLNEKGYVEIDHALPFSRTWDDSFNNKVLVLGSENQNKGNQTPYEYFNGKDNSREWQEFKARVETSRFPRSKKQRILLQKFDEDGFKERNLNDTRYVNRFLCQFVADRMRLTGKGKKRVFASNGQITNLLRGFWGLRKVRAENDRHHALDAVVVACSTVAMQQKITRFVRYKEMNAFDGKTIDKETGEVLHQKTHFPQPWEFFAQEVMIRVFGKPDGKPEFEEADTLEKLRTLLAEKLSSRPEAVHEYVTPLFVSRAPNRKMSGQGHMETVKSAKRLDEGVSVLRVPLTQLKLKDLEKMVNREREPKLYEALKARLEAHKDDPAKAFAEPFYKYDKAGNRTQQVKAVRVEQVQKTGVWVRNHNGIADNATMVRVDVFEKGDKYYLVPIYSWQVAKGILPDRAVVQGKDEEDWQLIDDSFNFKFSLHPNDLVEVITKKARMFGYFASCHRGTGNINIRIHDLDHKIGKNGILEGIGVKTALSFQKYQIDELGKEIRPCRLKKRPPVR

Row | Protein | in vitro DNA cleavage by Cas9:sgRNA in the presence of Acr (10:1 Acr:Cas9 molar ratio) (AcrIIC1Nme) | in vitro DNA cleavage by Cas9:sgRNA in the presence of Acr (10:1 Acr:Cas9 molar ratio) (AcrIIC3Nme) | in vitro DNA cleavage by Cas9:sgRNA in the presence of Acr (10:1 Acr:Cas9 molar ratio) (AcrIIC5Smu) | in vitro DNA cleavage by Cas9:sgRNA in the presence of Acr (10:1 Acr:Cas9 molar ratio) (AcrIIC2Nme) | in vitro DNA cleavage by Cas9:sgRNA in the presence of Acr (10:1 Acr:Cas9 molar ratio) (AcrIIC4Hpa) | in vitro DNA cleavage by Cas9:sgRNA in the presence of Acr (10:1 Acr:Cas9 molar ratio) (AcrE2)
1 | B1 | completely inhibited Nme2Cas9 | completely inhibited Nme2Cas9 | did not inhibit Nme2Cas9 in vitro even at a 10-fold molar excess | completely inhibited Nme2Cas9 | completely inhibited Nme2Cas9 | 
2 | B2 | all 5 families inhibited Nme1Cas9 | all 5 families inhibited Nme1Cas9 | all 5 families inhibited Nme1Cas9 | all 5 families inhibited Nme1Cas9 | all 5 families inhibited Nme1Cas9 | AcrE2 failed to do so

— patent US20240408238
